In this experiment the target is VcSiaP R125A Q54R1 L173R1 with N-terminal HisTEV tag (Vibrio cholerae) (UniProt Q9KR64). The experiment is described as follows: crystal structure.

For the substance “VcSiaP R125A Q54R1 L173R1 with N-terminal HisTEV tag (from UniProt Q9KR64 23-321) (natural protein)”, the stoichiometry N is 2.

What is called stoichiometry N is a count of units in the complex or per binding partner.
